Assay results taken from patent US20220162261A1 (published 2022).
Bridge positions count the residues as written; N and C are the ends. Square brackets hold non-standard residues; d marks the D form. Ends that are not written are not given here. Phe(4-tBu) = CC(C)(C)c1ccc(C[C@H](N)C(=O)O)cc1; NMeR = CN[C@@H](CCCNC(=N)N)C(=O)O; β3hE = N[C@@H](CCC(=O)O)CC(=O)O; Pen = CC(C)(S)[C@H](N)C(=O)O

What was measured:
soluble α4β7 integrin [1] = target: T1, soluble α4β7 integrin (UniProt P13612 34-970; P26010 20-723, limits assumed); test: SPR
T1 construct: analyte of the SPR experiment

soluble α4β7 integrin [2] = target: T1, soluble α4β7 integrin; test: SPR, binder on streptavidin chip, soluble α4β7
[3] = target: T2, human α4β7 integrin on cells (human, UniProt P13612 34-1032; P26010 20-798); test: RPMI8866/MAdCAM cell adhesion
T2 construct: whole, on cells; also called α4β7 cell (Hu); RPMI8866 cells

Row | Binder | fold lower KD than biotin-labeled vedolizumab (soluble α4β7 integrin [1]) [fold] | Kd (soluble α4β7 integrin [2]) [nM] | koff (soluble α4β7 integrin [2]) [s⁻¹] | kon (soluble α4β7 integrin [2]) [M⁻¹ s⁻¹] | IC50 [3] [nM]
1 | Ac-[Pen][NMeR]SDTL[Pen][Phe(4-tBu)][β3hE][dK] (disulfide 1-7; not fully specified (residue 10); also: dimer of two subunits joined by a linker at D-Lys10, biotin attached via PEG linker, position not given here) [Peptide X-biotin] | 3.8 | 15.4 | 1.73e-05 | 1120 | 
2 | Ac-[Pen][NMeR]SDTL[Pen][Phe(4-tBu)][β3hE][dK] (disulfide 1-7; not fully specified (residue 10); also: Alexa 647 label, position not given here) [Peptide X Alexa 647 conjugate] |  |  |  |  | 0.15
